Data as given in PMC13649712 (2026).
Like-named read-outs stand apart in the source and are kept apart here.

What was measured:
[1] = biological target: T1, mouse PER1 1013-1291 R1111A (mouse, UniProt O35973 1013-1291, R1111A); test: ITC
[2] = biological target: T1, mouse PER1 1013-1291 R1111A; test: ITC; remark: listed apart in the source

B1: mouse CRY1 1-496 (PHR) (domain or fragment)
chain: MGVNAVHWFRKGLRLHDNPALKECIQGADTIRCVYILDPWFAGSSNVGINRWRFLLQCLEDLDANLRKLNSRLFVIRGQPADVFPRLFKEWNITKLSIEYDSEPFGKERDAAIKKLATEAGVEVIVRISHTLYDLDKIIELNGGQPPLTYKRFQTLVSKMEPLEMPADTITSDVIGKCMTPLSDDHDEKYGVPSLEELGFDTDGLSSAVWPGGETEALTRLERHLERKAWVANFERPRMNANSLLASPTGLSPYLRFGCLSCRLFYFKLTDLYKKVKKNSSPPLSLYGQLLWREFFYTAATNNPRFDKMEGNPICVQIPWDKNPEALAKWAEGRTGFPWIDAIMTQLRQEGWIHHLARHAVACFLTRGDLWISWEEGMKVFEELLLDADWSINAGSWMWLSCSSFFQQFFHCYCPVGFGRRTDPNGDYIRRYLPVLRGFPAKYIYDPWNAPEGIQKVAKCLIGVNYPKPMVNHAEASRLNIERMKQIYQQLSRYRG
- Kd [1]: 10 nM
- Kd [2]: 9.8 nM
